Three molecules from patent publication US20140302123A1 can be followed below.

Test [1] deals with T1, PTPN4-PDZ (residues G499-N604) (human), P29074.
T1 chain: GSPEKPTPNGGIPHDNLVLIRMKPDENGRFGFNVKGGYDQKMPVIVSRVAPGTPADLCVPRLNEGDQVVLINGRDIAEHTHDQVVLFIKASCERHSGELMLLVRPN
The experiment in a line: NMR titration.

The target of test [2] is T1, PTPN4-PDZ (residues G499-N604) (human), …. The experiment in a line: NMR titration, 15N-labeled PTPN4-PDZ with unlabeled peptide.

As a reminder, the Kd is the equilibrium constant for the complex coming apart. A lower Kd goes with tighter binding.

For the molecule SNRRVYKKMPSIESDV (modifications not checked) [GluN2A-16], the fold increase in affinity against Cyto13-att in test [1] came to 4 fold. In test [2], this molecule yielded a Kd of 42 µM.

The molecule SWESYRSGGEIRL (modifications not checked) [EIRL-13] registered a Kd in test [2] of 1170 µM. In other words, the millimolar range. On the same count and under the same terms, as for LNLGNDPDRGTSI (modifications not checked) [GluD2-13], the figure is 128 µM.
